Usually Kd stands for the constant that tells how readily two partners part at equilibrium. High values mean a looser complex, low ones a tighter complex.

The results in this text go back to patent EP3433280B1 (F. Hoffmann-La Roche AG, dated 2023).

This test deals with T1, HER1 extracellular domain (human, UniProt P00533 25-645).
T1 construct: extracellular domain; also called HER1 coated chip surface
The experiment in a line: SPR (Biacore T100), HER1 extracellular domain amine-coupled to CM5, antibody injected at 3.125-50 nM, 1:1 Langmuir model.

B1: HER1-binding IgG1 antibody GA201 (antibody, V domains shown)
VH: QVQLVQSGAEVKKPGSSVKVSCKASGFTFTDYKIHWVRQAPGQGLEWMGYFNPNSGYSTYAQKFQGRVTITADKSTSTAYMELSSLRSEDTAVYYCARLSPGGYYVMDAWGQGTTVTVSS
VL: DIQMTQSPSSLSASVGDRVTITCRASQGINNYLNWYQQKPGKAPKRLIYNTNNLQTGVPSRFSGSGSGTEFTLTISSLQPEDFATYYCLQHNSFPTFGQGTKLEIKR
notes: IgG1, produced in 293-F cells; also called GA201 parental unmasked antibody; anti HER1 antibody GA201
Molecule B1 yielded a Kd of 1 nM.
